B1: TRAF3IP2 (parent)
chain: PGQPLPGASVRGLHPVQKVILNYP
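Note: lentivirally expressed fusions sorted by FACS into six bins by GFP to DsRed ratio, PSI derived from sequencing read proportions per bin multiplied by bin number.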

The variants in the series derive from B1. The experiment in a line: protein stability index of a GFP-peptide fusion (GPS, HEK-293T) (PSI 1-6); higher = more stable. Particulars: c terminus: a fixed tail appended.
In the case of PGQPLPGASVRGLHPVQKVIRNYP [L21R], the protein stability index stood at 2.76.

Regarding PGQPLPGASVRGLHPVQKVIDNYP [L21D], the protein stability index turned out to be 4.22.

With PGQPLPGASVRGLHPVQKVINNYP [L21N], the protein stability index is 3.6.

Consider PGQPLPGASVRGLHPVQKVIQNYP [L21Q], for which the protein stability index was 3.79.

Consider PGQPLPGASVRGLHPVQKVIGNYP [L21G], for which the protein stability index was 3.64.

With PGQPLPGASVRGLHPVQKVIFNYP [L21F], the protein stability index was 2.79.

With PGQPLPGASVRGLHPVQKVIENYP [L21E], the protein stability index worked out at 3.71.

With PGQPLPGASVRGLHPVQKVIINYP [L21I], the protein stability index was found to be 3.5.

As to PGQPLPGASVRGLHPVQKVISNYP [L21S], the protein stability index stood at 3.55.

Turning to PGQPLPGASVRGLHPVQKVICNYP [L21C], the protein stability index came to 3.23.

Turning to PGQPLPGASVRGLHPVQKVIHNYP [L21H], the protein stability index is 3.63.

Turning to PGQPLPGASVRGLHPVQKVIPNYP [L21P], the protein stability index amounted to 3.66.

Consider PGQPLPGASVRGLHPVQKVIMNYP [L21M], for which the protein stability index worked out at 3.45.

As for PGQPLPGASVRGLHPVQKVIKNYP [L21K], the protein stability index was 3.99.

Regarding PGQPLPGASVRGLHPVQKRILNYP [V19R], the protein stability index was found to be 2.82.

As for PGQPLPGASVRGLHPVQKLILNYP [V19L], the protein stability index is 3.23.

As to PGQPLPGASVRGLHPVQKYILNYP [V19Y], the protein stability index turned out to be 2.91.

As to PGQPLPGASVRGLHPVQKAILNYP [V19A], the protein stability index turned out to be 3.

As for PGQPLPGASVRGLHPVQKTILNYP [V19T], the protein stability index is 3.59.

Take PGQPLPGASVRGLHPVQKCILNYP [V19C]: the protein stability index was found to be 3.16.

For the variant PGQPLPGASVRGLHPVQKWILNYP [V19W], the protein stability index worked out at 3.38.

Consider PGQPLPGASVRGLHPVQKFILNYP [V19F], for which the protein stability index is 2.45.

Regarding PGQPLPGASVRGLHPVQKMILNYP [V19M], the protein stability index was 2.74.

Take PGQPLPGASVRGLHPVQKPILNYP [V19P]: the protein stability index amounted to 3.29.

For PGQPLPGASVRGLHPVQKSILNYP [V19S], the protein stability index worked out at 3.09.

Turning to PGQPLPGASVRGLHPVQKEILNYP [V19E], the protein stability index was 4.06.

PGQPLPGASVRGLHPVQKHILNYP [V19H]: the protein stability index is 3.06.

Turning to PGQPLPGASVRGLHPVQKDILNYP [V19D], the protein stability index is 3.23.

For PGQPLPGASVRGLHPVQKQILNYP [V19Q], the protein stability index turned out to be 3.71.

On to PGQPLPGASVRGLHPVQKIILNYP [V19I], for which the protein stability index turned out to be 3.26.

In the case of PGQPLPGASVRGLHPVQKKILNYP [V19K], the protein stability index was determined as 3.32.

With PGQPLPGASVRGLHPVQKNILNYP [V19N], the protein stability index turned out to be 3.59.

Consider PGQPLPGASVRGLHPVQKVRLNYP [I20R], for which the protein stability index came out at 3.89.

On to PGQPLPGASVRGLHPVQKVDLNYP [I20D], for which the protein stability index turned out to be 3.84.

In the case of PGQPLPGASVRGLHPVQKVPLNYP [I20P], the protein stability index came out at 3.36.

Consider PGQPLPGASVRGLHPVQKVHLNYP [I20H], for which the protein stability index came to 2.95.

As for PGQPLPGASVRGLHPVQKVLLNYP [I20L], the protein stability index amounted to 3.45.

Take PGQPLPGASVRGLHPVQKVCLNYP [I20C]: the protein stability index was determined as 3.25.

As to PGQPLPGASVRGLHPVQKVFLNYP [I20F], the protein stability index was 3.38.

PGQPLPGASVRGLHPVQKVALNYP [I20A]: the protein stability index is 3.89.

With PGQPLPGASVRGLHPVQKVTLNYP [I20T], the protein stability index is 3.03.

In the case of PGQPLPGASVRGLHPVQKVKLNYP [I20K], the protein stability index came out at 4.01.

PGQPLPGASVRGLHPVQKVQLNYP [I20Q]: the protein stability index amounted to 3.87.

As to PGQPLPGASVRGLHPVQKVSLNYP [I20S], the protein stability index was found to be 4.67.

PGQPLPGASVRGLHPVQKVMLNYP [I20M]: the protein stability index is 3.42.

PGQPLPGASVRGLHPVQKVELNYP [I20E]: the protein stability index came out at 3.91.

Turning to PGQPLPGASVRGLHPVQKVVLNYP [I20V], the protein stability index stood at 2.93.

Regarding PGQPLPGASVRGLHPVQKVNLNYP [I20N], the protein stability index came to 3.72.

As for PGQPLPGASVRGLHPVQSVILNYP [K18S], the protein stability index worked out at 3.27.

For PGQPLPGASVRGLHPVQHVILNYP [K18H], the protein stability index came out at 2.85.

For PGQPLPGASVRGLHPVQTVILNYP [K18T], the protein stability index came to 3.38.

Take PGQPLPGASVRGLHPVQPVILNYP [K18P]: the protein stability index stood at 2.99.

With PGQPLPGASVRGLHPVQMVILNYP [K18M], the protein stability index was 2.72.

Consider PGQPLPGASVRGLHPVQFVILNYP [K18F], for which the protein stability index was determined as 2.3.

As for PGQPLPGASVRGLHPVQGVILNYP [K18G], the protein stability index was 3.57.

In the case of PGQPLPGASVRGLHPVQRVILNYP [K18R], the protein stability index amounted to 2.64.

PGQPLPGASVRGLHPVQCVILNYP [K18C]: the protein stability index is 2.09.

In the case of PGQPLPGASVRGLHPVQNVILNYP [K18N], the protein stability index was 2.65.

PGQPLPGASVRGLHPVQDVILNYP [K18D]: the protein stability index is 3.6.

As for PGQPLPGASVRGLHPVQAVILNYP [K18A], the protein stability index was 2.64.

Regarding PGQPLPGASVRGLHPVQIVILNYP [K18I], the protein stability index was found to be 2.08.

With PGQPLPGASVRGLHPVQWVILNYP [K18W], the protein stability index was 2.76.

For the variant PGQPLPGASVRGLHPVQQVILNYP [K18Q], the protein stability index amounted to 3.78.

In the case of PGQPLPGASVRGLHPVQLVILNYP [K18L], the protein stability index stood at 2.31.

Consider PGQPLPGASVRGLHPVQYVILNYP [K18Y], for which the protein stability index came out at 2.52.

Turning to PGQPLPGASVRGLHPVQVVILNYP [K18V], the protein stability index is 2.02.

For PGQPLPGASVRGLHPYQKVILNYP [V16Y], the protein stability index was found to be 2.04.

With PGQPLPGASVRGLHPSQKVILNYP [V16S], the protein stability index came out at 3.46.

In the case of PGQPLPGASVRGLHPQQKVILNYP [V16Q], the protein stability index stood at 3.63.

PGQPLPGASVRGLHPNQKVILNYP [V16N]: the protein stability index was found to be 3.61.

In the case of PGQPLPGASVRGLHPPQKVILNYP [V16P], the protein stability index was 2.66.

As to PGQPLPGASVRGLHPRQKVILNYP [V16R], the protein stability index is 3.49.

Take PGQPLPGASVRGLHPLQKVILNYP [V16L]: the protein stability index stood at 2.57.

Take PGQPLPGASVRGLHPWQKVILNYP [V16W]: the protein stability index was determined as 2.54.

As to PGQPLPGASVRGLHPMQKVILNYP [V16M], the protein stability index is 2.72.

Consider PGQPLPGASVRGLHPTQKVILNYP [V16T], for which the protein stability index was found to be 3.36.

Consider PGQPLPGASVRGLHPVPKVILNYP [Q17P], for which the protein stability index was determined as 3.51.

Turning to PGQPLPGASVRGLHPVGKVILNYP [Q17G], the protein stability index was found to be 3.1.

On to PGQPLPGASVRGLHPVRKVILNYP [Q17R], for which the protein stability index amounted to 3.

In the case of PGQPLPGASVRGLHPVTKVILNYP [Q17T], the protein stability index came out at 2.81.

Consider PGQPLPGASVRGLHPVNKVILNYP [Q17N], for which the protein stability index came out at 2.8.

For PGQPLPGASVRGLHPVMKVILNYP [Q17M], the protein stability index was 2.43.

In the case of PGQPLPGASVRGLHPVEKVILNYP [Q17E], the protein stability index came out at 2.95.

For PGQPLPGASVRGLHPVWKVILNYP [Q17W], the protein stability index amounted to 1.87.

Regarding PGQPLPGASVRGLHPVLKVILNYP [Q17L], the protein stability index worked out at 1.71.

In the case of PGQPLPGASVRGLHPVYKVILNYP [Q17Y], the protein stability index is 3.02.

Turning to PGQPLPGASVRGLHPVAKVILNYP [Q17A], the protein stability index came out at 2.62.

PGQPLPGASVRGLHPVSKVILNYP [Q17S]: the protein stability index is 2.77.

Take PGQPLPGASVRGLHPVVKVILNYP [Q17V]: the protein stability index was found to be 1.35.

Turning to PGQPLPGASVRGLHPVKKVILNYP [Q17K], the protein stability index was determined as 2.97.

With PGQPLPGASVRGLHPVHKVILNYP [Q17H], the protein stability index turned out to be 2.9.

In the case of PGQPLPGASVRGLHPVIKVILNYP [Q17I], the protein stability index was found to be 2.24.

With PGQPLPGASVRGLHPVFKVILNYP [Q17F], the protein stability index was 1.26.

Take PGQPLPGASVRGLHPVCKVILNYP [Q17C]: the protein stability index is 2.52.

The values above are taken from the supplement of paper PMC10567573.
